Source: publication PMC4529466, “Intradermal insulin infusion achieves faster insulin action than subcutaneous infusion for 3-day wear” (Drug Delivery and Translational Research, 2015)

Assay: Safety: adverse events, hypoglycemia, Draize erythema and edema scoring of infusion site
Format: in vivo, human (T1DM patients)
Protocol: Safety evaluations comprised of recording/classification of adverse events (including hypoglycemia, BG < 60 mg/dL with or without symptoms), physical examinations, clinical laboratory parameters, vital signs, subjective pain assessments, and assessments of local tissue response at the injection site. Visual observations of the area around the infusion site for skin irritation, insulin leakage, and any notable abnormalities were recorded after each bolus delivery. Upon device removal, the study physician checked the site of insulin administration, as well as 1 and 2 h later, and scored any local reactions according to the Draize erythema and edema scale.
Pharmacokinetic parameters were derived from baseline corrected blood insulin data. The pharmacokinetic and pharmacodynamic populations included all patients with data from either route across 3 days of infusion and patients exposed to at least one trial product with available data respective of PK/PD endpoints. PK and PD endpoints were analyzed using a linear mixed effects model (ANOVA) with sequence, application route, meal, and day as factors along with interactions. The safety population included all patients who had participated in any trial-related activity after randomization. VAS pain data comparisons were made between application routes at each assessment time point using a similar model. Safety evaluations were summarized by descriptive statistics.

For insulin aspart, the “hypoglycemic episodes (BG below 60 mg/dL)” value (ID infusion) was 67 episodes, the “subjects with hypoglycemic episodes” value (ID infusion) was 22 subjects and the “instances with Draize erythema score 2” value (ID route, within 2 h after set removal on day 3) was 4/24. For the same substance, the “hypoglycemic episodes (BG below 60 mg/dL)” value (SC infusion) was 56 episodes, the “subjects with hypoglycemic episodes” value (SC infusion) was 18 subjects and the “detected hypoglycemic episodes, total” value (across the study, both routes, majority asymptomatic) was 123 episodes. For the same substance, the “Draize erythema and edema upon removal of infusion set” value (both routes, immediately after removal on day 3) was “essentially no detectable erythema or edema” and the “adverse events (AEs), total” value (entire study, both routes, mild to moderate severity, none serious) was 31.
